The values that follow come from article PMC4518479, “Rad51 Paralogs Remodel Pre-synaptic Rad51 Filaments to Stimulate Homologous Recombination” (Cell, 2015).

The target of data set [1] is T1, RFS-1/RIP-1 (Caenorhabditis elegans, UniProt P34348;Q21621 1-245;1-209).
T1 sequence 1: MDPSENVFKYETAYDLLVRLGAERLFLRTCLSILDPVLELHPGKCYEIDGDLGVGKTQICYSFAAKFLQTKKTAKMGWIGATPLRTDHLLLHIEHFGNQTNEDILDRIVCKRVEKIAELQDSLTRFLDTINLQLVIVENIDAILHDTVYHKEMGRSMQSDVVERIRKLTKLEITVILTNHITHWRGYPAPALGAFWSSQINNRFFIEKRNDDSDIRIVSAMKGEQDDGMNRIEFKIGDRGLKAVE
T1 sequence 2: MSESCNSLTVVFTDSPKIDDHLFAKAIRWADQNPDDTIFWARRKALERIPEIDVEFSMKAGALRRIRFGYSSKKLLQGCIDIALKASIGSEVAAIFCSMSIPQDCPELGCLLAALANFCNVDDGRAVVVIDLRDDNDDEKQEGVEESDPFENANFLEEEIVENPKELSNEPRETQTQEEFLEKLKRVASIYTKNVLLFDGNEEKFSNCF
Kind of data set: EMSA; weak binding; nucleotide independent; EMSA: 20 mM triethanolamine-HCl pH 7.5, 8% glycerol, 1 mM DTT, 50 mM sodium acetate, 2 mM MgCl2 + 2 mM nucleotide (or 10 mM EDTA), 100 nM (nt) DNA, 25 °C. The settings on record: protein: recombinant; copies: 1;1; label: 5'-32P or 5'-fluorescein.

Data set [2] concerns the target T2, RAD-51;RFS-1/RIP-1 (Caenorhabditis elegans;Caenorhabditis …, UniProt Q7K7I8;P34348;Q21621 1-357;1-245;1-209, |).
T2 sequence 1: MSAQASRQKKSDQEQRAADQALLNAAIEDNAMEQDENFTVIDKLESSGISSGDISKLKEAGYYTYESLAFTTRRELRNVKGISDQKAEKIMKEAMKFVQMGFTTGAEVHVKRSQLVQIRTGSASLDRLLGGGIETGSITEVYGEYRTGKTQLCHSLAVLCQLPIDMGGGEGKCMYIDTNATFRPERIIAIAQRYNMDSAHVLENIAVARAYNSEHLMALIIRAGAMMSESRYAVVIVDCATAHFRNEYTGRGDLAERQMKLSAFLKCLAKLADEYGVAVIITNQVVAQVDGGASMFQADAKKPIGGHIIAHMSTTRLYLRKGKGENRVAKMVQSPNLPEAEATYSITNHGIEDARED
T2 sequence 2: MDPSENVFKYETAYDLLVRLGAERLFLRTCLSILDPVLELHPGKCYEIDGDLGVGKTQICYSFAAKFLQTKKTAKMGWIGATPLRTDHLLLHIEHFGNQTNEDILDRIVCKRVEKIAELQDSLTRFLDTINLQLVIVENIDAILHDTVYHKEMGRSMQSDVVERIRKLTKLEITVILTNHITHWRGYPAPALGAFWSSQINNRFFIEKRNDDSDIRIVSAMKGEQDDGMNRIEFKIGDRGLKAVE
T2 sequence 3: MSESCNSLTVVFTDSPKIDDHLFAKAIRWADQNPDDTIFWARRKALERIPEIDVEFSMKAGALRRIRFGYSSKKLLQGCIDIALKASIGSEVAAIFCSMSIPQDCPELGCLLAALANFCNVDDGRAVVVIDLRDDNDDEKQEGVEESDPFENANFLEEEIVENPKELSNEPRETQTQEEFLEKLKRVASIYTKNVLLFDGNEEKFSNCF
Kind of data set: EMSA with anti-FLAG immuno-shift; ATP; RFS-1/RIP-1 bound to RAD-51 filament; EMSA: 20 mM triethanolamine-HCl pH 7.5, 8% glycerol, 1 mM DTT, 50 mM sodium acetate, 2 mM MgCl2 + 2 mM nucleotide (or 10 mM EDTA), 100 nM (nt) DNA, 25 °C. Particulars: protein: recombinant;recombinant; label: 5'-32P or 5'-fluorescein.

For data set [3], the target named is T3, RFS-1(E138A)/RIP-1 (Caenorhabditis elegans, UniProt P34348;Q21621 1-245;1-209, E138A).
T3 sequence 1: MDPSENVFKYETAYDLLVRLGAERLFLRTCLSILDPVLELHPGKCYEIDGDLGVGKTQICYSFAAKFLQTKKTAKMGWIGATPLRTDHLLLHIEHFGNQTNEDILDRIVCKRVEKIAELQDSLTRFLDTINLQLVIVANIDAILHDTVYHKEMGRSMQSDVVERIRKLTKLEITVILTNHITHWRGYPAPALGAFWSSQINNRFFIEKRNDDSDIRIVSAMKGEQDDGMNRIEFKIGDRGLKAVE
T3 sequence 2: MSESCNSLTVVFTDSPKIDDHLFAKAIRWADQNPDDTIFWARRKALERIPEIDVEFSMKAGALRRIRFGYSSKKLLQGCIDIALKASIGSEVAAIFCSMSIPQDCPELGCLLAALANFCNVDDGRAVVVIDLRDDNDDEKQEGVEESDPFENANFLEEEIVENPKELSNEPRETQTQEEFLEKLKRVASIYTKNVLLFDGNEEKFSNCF
As to the kind of experiment: EMSA; increased ssDNA affinity relative to wild type; EMSA: 20 mM triethanolamine-HCl pH 7.5, 8% glycerol, 1 mM DTT, 50 mM sodium acetate, 2 mM MgCl2 + 2 mM nucleotide (or 10 mM EDTA), 100 nM (nt) DNA, 25 °C. Particulars: protein: recombinant; tags: 3xFLAG at RIP-1 C-terminus; copies: 1;1; label: 5'-32P or 5'-fluorescein.

For data set [4], the target named is T4, RFS-1(K56A)/RIP-1 (Caenorhabditis elegans, UniProt P34348;Q21621 1-245;1-209, K56A).
T4 sequence 1: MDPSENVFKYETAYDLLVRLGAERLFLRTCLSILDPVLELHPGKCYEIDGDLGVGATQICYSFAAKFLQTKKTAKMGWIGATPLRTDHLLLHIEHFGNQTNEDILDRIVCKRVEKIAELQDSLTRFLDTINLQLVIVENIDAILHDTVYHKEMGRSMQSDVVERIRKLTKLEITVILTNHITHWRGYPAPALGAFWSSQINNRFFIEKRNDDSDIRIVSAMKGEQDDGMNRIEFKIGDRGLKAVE
T4 sequence 2: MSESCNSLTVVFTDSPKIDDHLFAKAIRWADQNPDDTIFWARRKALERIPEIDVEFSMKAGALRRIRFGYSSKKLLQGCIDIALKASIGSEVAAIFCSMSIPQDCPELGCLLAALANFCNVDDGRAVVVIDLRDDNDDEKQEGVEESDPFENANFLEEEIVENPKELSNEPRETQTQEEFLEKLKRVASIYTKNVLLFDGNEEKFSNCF
The description is as above. Particulars: protein: recombinant; tags: 3xFLAG at RIP-1 C-terminus; copies: 1;1; label: 5'-32P or 5'-fluorescein.

The target in data set [5] is T5, RAD-51;RFS-1(K56A)/RIP-1 (Caenorhabditis elegans;Caenorhabditis …, UniProt Q7K7I8;P34348;Q21621 1-357;1-245;1-209, |K56A).
T5 sequence 1: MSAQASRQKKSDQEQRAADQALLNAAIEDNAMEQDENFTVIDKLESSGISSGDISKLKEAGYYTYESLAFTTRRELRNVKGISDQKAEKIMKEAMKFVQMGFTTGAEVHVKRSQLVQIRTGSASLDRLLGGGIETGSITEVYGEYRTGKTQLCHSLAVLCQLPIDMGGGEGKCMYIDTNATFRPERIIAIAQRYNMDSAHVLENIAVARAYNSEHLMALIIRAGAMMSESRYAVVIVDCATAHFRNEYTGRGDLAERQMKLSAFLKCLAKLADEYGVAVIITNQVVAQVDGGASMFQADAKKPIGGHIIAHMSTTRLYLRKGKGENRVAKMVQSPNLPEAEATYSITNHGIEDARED
T5 sequence 2: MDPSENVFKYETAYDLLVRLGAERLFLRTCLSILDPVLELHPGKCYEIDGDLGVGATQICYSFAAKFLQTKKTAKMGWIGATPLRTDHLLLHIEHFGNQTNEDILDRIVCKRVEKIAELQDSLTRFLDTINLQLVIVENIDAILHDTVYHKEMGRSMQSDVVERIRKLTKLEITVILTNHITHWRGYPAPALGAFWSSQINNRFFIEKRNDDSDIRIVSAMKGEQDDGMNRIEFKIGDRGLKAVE
T5 sequence 3: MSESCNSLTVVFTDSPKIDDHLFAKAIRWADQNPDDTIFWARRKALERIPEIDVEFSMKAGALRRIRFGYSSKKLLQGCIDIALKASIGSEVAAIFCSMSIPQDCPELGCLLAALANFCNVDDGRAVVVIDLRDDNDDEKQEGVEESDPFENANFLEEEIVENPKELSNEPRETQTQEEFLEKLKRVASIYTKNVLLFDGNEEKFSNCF
As to the kind of experiment: EMSA; ATP; filament binding similar to wild type; EMSA: 20 mM triethanolamine-HCl pH 7.5, 8% glycerol, 1 mM DTT, 50 mM sodium acetate, 2 mM MgCl2 + 2 mM nucleotide (or 10 mM EDTA), 100 nM (nt) DNA, 25 °C. Particulars: protein: recombinant;recombinant; tags: none (His-SUMO tag cleaved);3xFLAG at RIP-1 C-terminus; label: 5'-32P or 5'-fluorescein.

The target in data set [6] is T6, RAD-51;RFS-1(E138A)/RIP-1 (Caenorhabditis elegans;Caenorhabditis …, UniProt Q7K7I8;P34348;Q21621 1-357;1-245;1-209, |E138A).
T6 sequence 1: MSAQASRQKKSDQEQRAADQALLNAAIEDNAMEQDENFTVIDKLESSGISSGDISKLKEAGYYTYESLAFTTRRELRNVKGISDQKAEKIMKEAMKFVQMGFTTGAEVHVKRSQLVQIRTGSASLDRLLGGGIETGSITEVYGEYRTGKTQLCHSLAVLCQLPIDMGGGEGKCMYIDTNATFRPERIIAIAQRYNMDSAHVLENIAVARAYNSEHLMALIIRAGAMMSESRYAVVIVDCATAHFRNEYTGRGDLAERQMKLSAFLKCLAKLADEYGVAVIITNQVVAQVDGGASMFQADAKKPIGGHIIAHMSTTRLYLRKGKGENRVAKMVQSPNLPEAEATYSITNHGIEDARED
T6 sequence 2: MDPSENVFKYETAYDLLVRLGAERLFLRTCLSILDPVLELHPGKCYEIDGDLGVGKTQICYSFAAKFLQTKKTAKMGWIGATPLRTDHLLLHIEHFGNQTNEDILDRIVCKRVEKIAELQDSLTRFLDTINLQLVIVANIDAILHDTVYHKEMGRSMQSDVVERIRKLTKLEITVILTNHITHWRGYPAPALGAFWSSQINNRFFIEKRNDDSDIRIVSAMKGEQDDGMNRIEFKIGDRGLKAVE
T6 sequence 3: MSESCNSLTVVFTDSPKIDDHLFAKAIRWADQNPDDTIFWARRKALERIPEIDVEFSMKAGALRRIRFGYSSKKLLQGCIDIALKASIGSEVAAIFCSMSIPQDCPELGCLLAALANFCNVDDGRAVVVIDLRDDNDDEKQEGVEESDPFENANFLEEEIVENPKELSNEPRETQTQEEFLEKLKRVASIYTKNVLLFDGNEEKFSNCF
The description is as above. Particulars: protein: recombinant;recombinant; tags: none (His-SUMO tag cleaved);3xFLAG at RIP-1 C-terminus; label: 5'-32P or 5'-fluorescein.

Data set [7] has as its target T1, RFS-1/RIP-1. As to the kind of experiment: EMSA; EMSA: 20 mM triethanolamine-HCl pH 7.5, 8% glycerol, 1 mM DTT, 50 mM sodium acetate, 2 mM MgCl2 + 2 mM nucleotide (or 10 mM EDTA), 100 nM (nt) DNA, 25 °C. Particulars: protein: recombinant; copies: 1;1; label: 5'-32P; blunt.
Data set [8] concerns the target T7, FLAG-tagged RIP-1 co-expressed with RFS-1 in budding yeast (C. elegans, UniProt Q21621 1-209).
T7 construct: RIP-1 of C. elegans (R01H10.5); also called RIP-1-FLAG; source: budding yeast, co-expressed with RFS-1, in extract; purified by FLAG immunoprecipitation; not shown: FLAG, C-terminal, kept
T7 sequence (looked up): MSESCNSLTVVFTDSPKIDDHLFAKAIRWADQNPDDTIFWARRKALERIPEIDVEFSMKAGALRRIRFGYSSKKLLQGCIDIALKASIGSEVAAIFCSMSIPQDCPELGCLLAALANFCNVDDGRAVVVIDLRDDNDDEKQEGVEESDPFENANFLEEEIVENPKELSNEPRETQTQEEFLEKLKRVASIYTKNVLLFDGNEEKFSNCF
As to the kind of experiment: SEC; 3 ml Superdex 75 5/150 GL column loaded with 30 ul RFS-1/RIP-1 from single-step FLAG immunoprecipitation; size from molecular weight markers. Particulars: both partners purified.

B1: 60-mer ssDNA (ssDNA)
DNA: ACGCTGCCGAATTCTACCAGTGCCTTGCTAGGACATCTTTGCCCACCTGCAGGTTCACCC
With B1, the binding result in data set [1], in data set [2], in data set [3], in data set [4], in data set [5] and in data set [6] was “binds” in each case.

B2: 60-mer dsDNA (dsDNA)
DNA 1: ACGCTGCCGAATTCTACCAGTGCCTTGCTAGGACATCTTTGCCCACCTGCAGGTTCACCC
DNA 2: GGGTGAACCTGCAGGTGGGCAAAGATGTCCTAGCAAGGCACTGGTAGAATTCGGCAGCGT
With B2, the binding result in data set [7] is reported as “no binding”.

B3: RFS-1 co-expressed with RIP-1 in budding yeast (natural protein, C. elegans, UniProt P34348 1-245, looked up)
chain: MDPSENVFKYETAYDLLVRLGAERLFLRTCLSILDPVLELHPGKCYEIDGDLGVGKTQICYSFAAKFLQTKKTAKMGWIGATPLRTDHLLLHIEHFGNQTNEDILDRIVCKRVEKIAELQDSLTRFLDTINLQLVIVENIDAILHDTVYHKEMGRSMQSDVVERIRKLTKLEITVILTNHITHWRGYPAPALGAFWSSQINNRFFIEKRNDDSDIRIVSAMKGEQDDGMNRIEFKIGDRGLKAVE
notes: RFS-1 of C. elegans; see Supplemental Experimental Procedures; also called recombinant RFS-1; source: budding yeast, co-expressed with RIP-1, in extract; co-purified by FLAG immunoprecipitation
In the case of B3, the “stoichiometry N” value in data set [8] was determined as 1.
